System: K1-5 phage
Test: Plaquing efficiency of K1-5 phage on K1 E. coli strains with inducible CRISPR-Cas9 and sgRNAs targeting the phage genome
Assay type: cell-based, K1-5 bacteriophage
Details: K1-5 phage plated on strains expressing the sgRNAs, in the absence of homology for repair
Method: K1 E. coli strains were generated for cleaving and recombining at locations specified by either sgRNAs 86+89 or sgRNAs 1112+1122. Cells were maintained with 50 μg/mL kanamycin (for the CRISPR expression vector) and 10 μg/mL gentamicin (for the recombination expression vector). Cells were grown while shaking at 37° C. to OD600˜0.6 and were then subjected to various induction treatments. Cultures were either (1) not induced, (2) induced with 100 ng/mL anhydrotetracycline (aTc) to activate Cas9 expression, (3) induced with 0.2% arabinose to activate lambda red operon expression, or (4) induced with both 100 ng/mL anhydrotetracycline and 0.2% arabinose to activate expression of Cas9 and lambda red genes. Induction was carried out for 2 hours while shaking at 37° C.
K1-5 lysate was then used to infect 200 μL cultures of each bacterial strain/induction condition at 10^6, 10^4, and 10^2 PFU. This infection was given 10 minutes for the phage to adsorb before being added to 3 mL of 0.65% LB top agar. The appropriate inducer was spiked into each top agar tube to maintain induction. The top agar was then spread over an LB agar plate containing the appropriate antibiotics to maintain the CRISPR and recombination expression vectors. The agar plates were incubated in an airtight container for approximately 16 hours at 37° C. […]

| Molecule | reduction in plaquing efficiency |
| --- | --- |
| sgRNAs 1112+1122: pair of single guide RNAs, SEQ ID NO: 18 and 19, targeting the K1-5 phage genome with Cas9 (nucleic acid, further chemistry not given here) guide 1: UAUAUUAUACCAGAGAGGCGGUUUUAGAGCUAGAAAUAGCAAGUUAAAAUAAGGCUAGUCCGUUAUCAACUUGAAAAAGUGGCACCGAGUCGGUGCUUUUUUU guide 2: GAAGUUCUAAGGAGAUAACAGUUUUAGAGCUAGAAAUAGCAAGUUAAAAUAAGGCUAGUCCGUUAUCAACUUGAAAAAGUGGCACCGAGUCGGUGCUUUUUUU | 2105 fold |
| sgRNAs 86+89: pair of single guide RNAs, SEQ ID NO: 16 and 17, targeting the K1-5 phage genome with Cas9 (nucleic acid, further chemistry not given here) guide 1: ACUAAAUGAGGAUUAAAUCAGUUUUAGAGCUAGAAAUAGCAAGUUAAAAUAAGGCUAGUCCGUUAUCAACUUGAAAAAGUGGCACCGAGUCGGUGCUUUUUUU guide 2: UUACUCUGAUGCACUACAUGGUUUUAGAGCUAGAAAUAGCAAGUUAAAAUAAGGCUAGUCCGUUAUCAACUUGAAAAAGUGGCACCGAGUCGGUGCUUUUUUU | ~1.9×10^6 fold |

Reference: patent US10202610B2, “Recombinant K1-5 bacteriophages and uses thereof” (priority 2017, dated 2019)
